The target of one test is T1, GST (UniProt P08515 1-218 = GST).
T1 construct: Negative control bait; also called glutathione S-transferase control
As to the kind of experiment: GST pull-down control (GST alone on beads), autoradiography, FIG. 2C. On the procedure:
Agarose-GSH beads (50% (vol./vol.)) bound with about 1 μg of GST or GST-CaM were incubated with 10 μl of ³⁵S-labelled TRPM8 fragment for 30 min at room temperature in a final volume of 200 μl of binding buffer. At the end of the incubation, the beads were washed three times with 1.0 ml of binding buffer and resuspended in 20 μl of 2× laemmli's sample loading buffer. Protein(s) bound to the beads, including the GST-CaM fusion protein, and possibly the ³⁵S-labelled TRPM8 fragment that interact with the GST-CaM fusion protein, were separated by SDS/PAGE followed by autoradiography.

A further test concerns the target GST-CaM fusion protein (Homo sapiens (Human), UniProt P0DP23 2-149). As to the kind of experiment: GST pull-down on agarose-GSH beads, 35S-labelled fragment, SDS/PAGE and autoradiography.

T1 sequence (P08515 whole entry): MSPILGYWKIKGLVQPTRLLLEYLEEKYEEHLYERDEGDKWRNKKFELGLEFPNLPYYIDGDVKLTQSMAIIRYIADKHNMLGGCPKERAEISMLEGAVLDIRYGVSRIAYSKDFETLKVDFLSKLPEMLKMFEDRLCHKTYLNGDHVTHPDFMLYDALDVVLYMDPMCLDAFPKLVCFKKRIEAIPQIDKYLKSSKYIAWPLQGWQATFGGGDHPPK

B1: TRPM8-7 fragment (rat TRPM8 V145-S352) (other)
chain: VISVTGGAKNFALKPRMRKIFSRLIYIAQSKGAWILTGGTHYGLMKYIGEVVRDNTISRNSEENIVAIGIAAWGMVSNRDTLIRNCDDEGHFSAQYIMDDFMRDPLYILDNNHTHLLLVDNGCHGHPTVEAKLRNQLEKYISERTSQDSNYGGKIPIVCFAQGGGRETLKAINTSVKSKIPCVVVEGSGQIADVIASLVEVEDVLTSS
modifications: 35S-methionine labelled
notes: In vitro translated from pAGA3; The forward primer carries an NcoI site (start ATG before V145); also called TRPM8-7/pAGA3; rTRPM8-7
For B1, in the test with GST, the binding result was “no binding”.

B2: TRPM8-9 fragment (rat TRPM8 A172-S352) (other)
chain: AQSKGAWILTGGTHYGLMKYIGEVVRDNTISRNSEENIVAIGIAAWGMVSNRDTLIRNCDDEGHFSAQYIMDDFMRDPLYILDNNHTHLLLVDNGCHGHPTVEAKLRNQLEKYISERTSQDSNYGGKIPIVCFAQGGGRETLKAINTSVKSKIPCVVVEGSGQIADVIASLVEVEDVLTSS
modifications: 35S-methionine labelled
notes: In vitro translated from pAGA3; The forward primer carries an NcoI site (start ATG before A172); also called TRPM8-9/pAGA3; rTRPM8-9
Turning to B2, the binding result with GST-CaM fusion protein and with GST was “no binding” throughout.

B3: TRPM8-10 fragment (rat TRPM8 D198-S352) (other)
chain: DNTISRNSEENIVAIGIAAWGMVSNRDTLIRNCDDEGHFSAQYIMDDFMRDPLYILDNNHTHLLLVDNGCHGHPTVEAKLRNQLEKYISERTSQDSNYGGKIPIVCFAQGGGRETLKAINTSVKSKIPCVVVEGSGQIADVIASLVEVEDVLTSS
modifications: 35S-methionine labelled
notes: In vitro translated from pAGA3; The forward primer carries an NcoI site (start ATG before D198); also called TRPM8-10/pAGA3; rTRPM8-10
For the molecule B3, the binding result with GST-CaM fusion protein and in the test with GST was “no binding” throughout.

B4: TRPM8-2 fragment (rat TRPM8 M353-T690) (other)
chain: MVKEKLVRFLPRTVSRLPEEEIESWIKWLKEILESPHLLTVIKMEEAGDEVVSSAISYALYKAFSTNEQDKDNWNGQLKLLLEWNQLDLASDEIFTNDRRWESADLQEVMFTALIKDRPKFVRLFLENGLNLQKFLTNEVLTELFSTHFSTLVYRNLQIAKNSYNDALLTFVWKLVANFRRSFWKEDRSSREDLDVELHDASLTTRHPLQALFIWAILQNKKELSKVIWEQTKGCTLAALGASKLLKTLAKVKNDINAAGESEELANEYETRAVELFTECYSSDEDLAEQLLVYSCEAWGGSNCLELAVEATDQHFIAQPGVQNFLSKQWYGEISRDT
modifications: 35S-methionine labelled
notes: In vitro translated from pAGA3; also called TRPM8-2/pAGA3; rTRPM8-2
For the molecule B4, the binding result with GST-CaM fusion protein is “no binding”.

B5: TRPM8-8 fragment (rat TRPM8 M219-S352) (other)
chain: MVSNRDTLIRNCDDEGHFSAQYIMDDFMRDPLYILDNNHTHLLLVDNGCHGHPTVEAKLRNQLEKYISERTSQDSNYGGKIPIVCFAQGGGRETLKAINTSVKSKIPCVVVEGSGQIADVIASLVEVEDVLTSS
modifications: 35S-methionine labelled
notes: In vitro translated from pAGA3; also called TRPM8-8/pAGA3; rTRPM8-8
Consider B5, for which the binding result with GST-CaM fusion protein and with GST was “no binding” in each case.

These data come from patent publication US20070105155A1 (Janssen / Centocor, published 2007).
